Measured values as given in article PMC5133711.
Each block holds one substance with its values, some of them ahead of it.

Legend:
JARID2 1-530 (hJARID2) = experiment: BLI; details: BLI: 10 mM HEPES pH 7.4, 150 mM NaCl, 3 mM EDTA, 0.005% Tween-20, 1 mg/ml BSA, 25 C, pull-down buffer not given in the material
[1] = molecular target: H2AK119u1(I44A) mononucleosomes (Xenopus | not stated) (UniProt P0CG48); experiment: BLI; biotinylated mononucleosomes immobilised on streptavidin biosensors; Jarid2 1-530 at 2–25 μM; 25 °C; 10 mM HEPES pH 7.4, 150 mM NaCl, 3 mM EDTA, 0.005% Tween-20, 1 mg/ml BSA; kon and koff from kobs versus concentration; n=3
[2] = molecular target: H2AK119u1-modified mononucleosomes (Xenopus | not stated); experiment: as above
[3] = molecular target: unmodified mononucleosomes (Xenopus); experiment: as above

Substance: H2AK119u1 mononucleosome (601, 147 bp)
Kd (JARID2 1-530 (hJARID2); kon 576 s-1 (so in the source), H2A K119C crosslinked to His-ubiquitin G67C (so in the source) by 1,3-dichloroacetone): 2.8 µM

Substance: H2AK119u1(I44A) mononucleosome (601, 147 bp)
Kd (JARID2 1-530 (hJARID2); H2A K119C crosslinked to His-ubiquitin I44A;G67C (so in the source)): 5.1 µM

Kd [1]: 5.1 µM
Kd [2]: 2.8 µM
Kd [3]: 5 µM
Substance: hJARID2 1–530 (from UniProt Q92833 1-530) (domain or fragment)

Substance: unmodified mononucleosome (601, 147 bp)
Kd (JARID2 1-530 (hJARID2); kon 313 s-1 (so in the source)): 5 µM
